Results: the supplement of paper PMC9170038

System: K4 kissing-loop RNA reporter
Assay: apparent KD of K4 kissing-loop reporter; higher = weaker reporter binding
Conditions: Eterna round: R107
Method: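 RNA-MaP round R107: designed RNA switches with theophylline, tryptophan, arginine or FMN aptamers are transcribed on-chip within common flanks. They are titrated with a labelled K4 kissing-loop RNA reporter in RNA-MaP buffer (100 mM Tris pH 7.5, 80 mM KCl, 4 mM MgCl2), without ligand or with the indicated ligand. Median apparent KD per design.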

[1] = input ligand: theophylline 20 uM
[2] = input ligand: tryptophan 2.4 mM
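Note: bound reporter read as fluorescence of individual clusters on recovered sequencing chips by microscopy, with normalized cluster intensities fitted with a binding model.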

| Sequence | apparent KD of K4 kissing-loop reporter (input ligand: FMN 200 uM) | apparent KD of K4 kissing-loop reporter (input ligand: arginine 13.2 mM) | apparent KD of K4 kissing-loop reporter (input ligand: none) | apparent KD of K4 kissing-loop reporter [1] | apparent KD of K4 kissing-loop reporter [2] |
| --- | --- | --- | --- | --- | --- |
| AAGUCAUAUAGAAGGAGCGUGUUUUUUAAUUUGUUUUCAUGAUCGAGUGAUGUUCGAUAUACACAGGUAGGUCGCUGUAUGAUAA [hbob_SS_Arginine_B_2t143] | 128 nM | 146 nM | 130 nM | 177 nM | 114 nM |
| AAGUGAUGUUGUAGUGAUGUUGUGAUGUUGCAGGAUAUAUAGUGAUGUAGAAGGGUAUGUGCAGUUUUCAUAUUUGAGUGUUGAU [mkkhmullin] | 85.2 nM | 37.6 nM | 67.1 nM | 56.5 nM | 64.2 nM |
| AAUAAGGAGUGAUGUUCCAAGUGAUGUUAACGAGGACCGGUACGGCCGCCACUCGAUACGGCCGGAAAGUAAGAUAAACUAAAAU [Same State - Tryptophan A (Freestyle 2)] | 61 nM | 42.8 nM | 52.3 nM | 45.5 nM | 47.2 nM |
| AAUACAGUACAACCGAGUGGAACACAAAUACGAGGACCGGUACGGCCGCCACUCGUGCAGAAUUUCAGUGAUGUUGAAAUACUGC [Exclusion Tryptophan A GF 6] | 165 nM | 125 nM | 122 nM | 162 nM | 149 nM |
| AAUAUCUAGUAUAUAUUUUAUAAAACAGAUACCAGUGAUUAUAUACACCCUUGGCAGCUGGACGAGUGAUGUUCGUAUAUAUUAA [JR_SSTheophyA_Sub008] | 118 nM | 188 nM | 147 nM | 244 nM | 89 nM |
| AAUGUACAGGGAAGGAGCGUAGUCCAGUGAUGUUGGAAUUAAAUUCCUGCGAUGUUGGUUAUACAGGUAGGUCGCCCUAAAGUGC [KL-XARG-B22] | 367 nM | 351 nM | 436 nM | 497 nM | 344 nM |
| AAUUCAGCUAGUGAUGUUAGCGUAGAGUGCAAGGAUAUCCCUGUCAGGAGAAGGUGCGUAGAACGUUUGCCAUCAGAUUGUCCCA [theeternabot_exclusion_KL_FMN_A_48] | 176 nM | 97.2 nM | 118 nM | 104 nM | 109 nM |
| AAUUCAGUGAUGUUGGAAGGCAAGCGGGAUACCAGCGGAGAAUAACGCCCUUGGCAGCCCAUAUAUCCCAAAUAGAUAAUAGUUC [Same State - Theophylline A (Freestyle 4)] | 345 nM | 220 nM | 279 nM | 327 nM | 337 nM |
| AAUUGAGUGACGGCCGCCACUAGAGUGAUUUUUUUGUUUGAGUGAUGUUUUGAUGUUUGAUGUUGUAGGACCGGGUUGAGUGAUG [vvrvmullin] | 377 nM | 348 nM | 386 nM | 428 nM | 291 nM |
| AAUUUAUAUUUGUUCUUCAAAUGUUCAGAAGGAGCGUGAAUUAUCACAGGUAGGUCGCUGGGCUAGUGAUGUUGGCUAUAUACUA [whbob_Ex_Arginine_A_2t126] | 168 nM | 195 nM | 195 nM | 211 nM | 137 nM |
| AAUUUAUUAACUGAUACCAGACUUAAUAAAUUUUAAAUCACUAGUGAUGUUAGUGAAUAUGUCCCUUGGCAGCAGUAUUUAUUAA [JR_SSTheophyB_Sub023] | 132 nM | 134 nM | 125 nM | 121 nM | 115 nM |
| ACACAGAGUUGCCGAGUGAUGUUCGGCUUACGAGGACCGGUACGGCCGCCACUCGUUACUCUGUGUUUUGGACACCAAGGCGUCG [Tionzaanon] | 651 nM | 449 nM | 543 nM | 505 nM | 201 nM |
| ACACUUUACGUAGGAUAUGCGACGAGUGAUGUUCGUCAGGCGGCCUUAGAUUAAACAAGCCGCCUAGCAGAAGGACGGGCAGUGU [Qumatiri] | 133 nM | 155 nM | 201 nM | 154 nM | 159 nM |
| ACCUACCAUUAGUGAUGUUAAUGGACGGAAGGAGCGCAGAUAUCUGCAGGUAGGUCGCCGAAGGCUAGACAUUGUCUAGCCAUUU [AK1.3 SS Arginine A] | 192 nM | 161 nM | 217 nM | 155 nM | 180 nM |
| ACCUACGAUCACGAAAGUGAUUGUAGGAUCUAGGAUAUGCUGAAGAGCAGAAGGAGAGUGAUGUUCUCAUCUCACGAAAGUGAGA [whbob_Ex_FMNA__2th190] | 437 nM | 206 nM | 217 nM | 245 nM | 221 nM |
| ACCUAGUACGUAGGAUAUCGAACAUCAUUUAGUGAGAUCGAGUGAUGUUCGAUCACGUCUUCAGUUCGAGAAGGACGUACUAGGA [FMN B SS t4] | 335 nM | 273 nM | 302 nM | 477 nM | 351 nM |
| ACGAAGGAUGGAAGGAGCGCUCGUCAGUCCUGCGAGUGAUGUUCGUGGGUAAAUAUUCGCGAGCAGGUAGGUCGCCAUCUUGAAC [Veticeen] | 146 nM | 104 nM | 137 nM | 121 nM | 134 nM |
| ACGCUAGCUACCGAAAGGUAGCUAGCGAGUGAGGAUAUGUGGAAACACAGAAGGCACAGCGCAGUGAUGUUGUGCGGCGAAAGCC [whbob_SS_FMNA__2th166] | 462 nM | 275 nM | 418 nM | 231 nM | 803 nM |
